How the values were obtained:
[1] = biological target: HLA-A*02:01 (human MHC I heavy chain ectodomain, amino acids 1-278) refolded with human β2-microglobulin (human)
[2] = biological target: H2-D^b (mouse MHC I heavy chain ectodomain) refolded with human β2-microglobulin (mouse | human); assay: SEC
[3] = biological target: H2-D^b (mouse MHC I heavy chain ectodomain) refolded with human β2-microglobulin (mouse | human); assay: fluorescence polarisation
[4] = biological target: HLA-A*02:01 (human MHC I heavy chain ectodomain, amino acids 1-278) refolded with human β2-microglobulin (human); assay: fluorescence polarisation

Substance	dissociation rate constant of fluorescent peptide FLPSDC*FPSF from HLA-A*02:01 (300 nM) with 1 µM TAPBPR and 1000-fold excess of competitor peptide (uncatalyzed 1.90 × 10^-3 s^-1) [1] [s⁻¹]	reduction of the amount of complex against TAPBPR^wt (SEC peak area) [2] [%]	percent of fluorescent peptide released at 1 µM TAPBPR [3] [%]	dissociation rate constant of fluorescent peptide FLPSDC*FPSF from HLA-A*02:01 (300 nM) with 1 µM TAPBPR and 1000-fold excess of competitor peptide [1] [s⁻¹]	percent of total MHC I-associated peptide dissociated at saturation (3 µM TAPBPR) [4] [%]	percent of total MHC I-associated peptide dissociated at saturation (3 µM TAPBPR) [3] [%]
TAPBPR^Tsn-SL (human TAPBPR lumenal domain with the scoop loop replaced by the corresponding shorter loop of tapasin) (from UniProt Q9BX59 33-401) (domain or fragment)	0.0263	40	12	–	–	–
TAPBPR^wt (wildtype human TAP-binding protein-related, ER-lumenal domain) (from UniProt Q9BX59 33-401) (domain or fragment)	–	–	60	0.0158	80	70
TAPBPR^ΔSL (human TAPBPR lumenal domain with the scoop loop replaced by three glycine residues) (from UniProt Q9BX59 33-401) (domain or fragment)	–	90	–	0.00852	–	–

— publication PMC7117912
